As a reminder, the Kd is a measure of binding affinity in units of concentration.

The values that follow come from publication PMC7810988, “Inositol pyrophosphates promote the interaction of SPX domains with the coiled-coil motif of PHR transcription factors to regulate plant phosphate homeostasis”.

The target of this data set is AtPHR1 MYB-CC (Arabidopsis thaliana, UniProt Q94CL7 222-358). The data set can be described thus: GCI; 4 C, 300 mM NaCl; GCI at 4 C: AtPHR1 in 20 mM HEPES pH 7.5, 300 mM NaCl; OsPHR2 in 20 mM HEPES pH 7.9, 200 mM NaCl. EMSA: LI-COR Odyssey kit buffer without optional components, 50 nM oligo, 30 min at room temperature, 5% TBE gel in 0.5x TBE. The settings on record: protein: recombinant; tags: His6 N-terminal, TEV-cleaved (untagged); chain copies: 2; label: 5'-biotin on strand 1; blunt. A general note: In EMSA bound probe runs differently from free probe, usually more slowly.
Chain of AtPHR1 MYB-CC (Q94CL7 222-358): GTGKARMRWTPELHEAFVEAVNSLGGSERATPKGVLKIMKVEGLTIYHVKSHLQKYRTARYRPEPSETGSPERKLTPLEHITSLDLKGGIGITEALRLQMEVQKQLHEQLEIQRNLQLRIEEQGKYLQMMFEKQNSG

B1: pAtSPX1 biotin (dsDNA)
DNA 1: CAGAGAAAAAAGGATATTCTAATTAGAAACCTTAAGAATATTCTTTTTAATCCC
DNA 2: GGGATTAAAAAGAATATTCTTAAGGTTTCTAATTAGAATATCCTTTTTTCTCTG
On to B1, for which the dissociation constant (Kd) was about 200 nM.
